Measured values published in patent US20090053243A1 (INSTITUTE FOR ANTIBODIES, published 2009).

Molecular target: T1, IgSF4 (Immunoglobulin superfamily member 4), human, as expressed by human cell lines (human, UniProt Q9BY67 45-442)
T1 construct: also called BL2; ST17
T1 sequence: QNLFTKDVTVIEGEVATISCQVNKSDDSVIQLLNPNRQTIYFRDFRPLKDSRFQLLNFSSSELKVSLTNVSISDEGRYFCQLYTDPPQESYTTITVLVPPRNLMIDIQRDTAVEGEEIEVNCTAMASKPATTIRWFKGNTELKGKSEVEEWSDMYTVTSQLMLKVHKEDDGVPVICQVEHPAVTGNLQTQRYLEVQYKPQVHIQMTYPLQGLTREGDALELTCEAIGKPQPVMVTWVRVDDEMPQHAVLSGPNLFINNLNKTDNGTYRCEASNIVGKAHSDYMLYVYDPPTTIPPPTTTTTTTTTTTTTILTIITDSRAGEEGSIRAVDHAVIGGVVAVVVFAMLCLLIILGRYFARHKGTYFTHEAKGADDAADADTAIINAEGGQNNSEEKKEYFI
Test: statement in the ADCC experiment on VMRC-LCD target cells
Experimental: As target cells to be used, lung cancer derived cultured cells VMRC-LCD (provided from Japanese Collection of Research Bioresources) was grown in a liquid culture medium 1 (Minimum Essential Medium Alpha Medium: Invitrogen, 10% (v/v) fetal bovine serum: Equitic-Bio, 1% (v/v) Penicillin-Streptomycin Solution: Sigma-Aldrich) on a culture dish having a diameter of 150 mm. The liquid culture medium was removed, cells were washed with 10 ml of PBS twice, and liquid was removed. To this, 5 ml of 4% (w/v) collagenase Type IV (Invitrogen) was added and maintained at 37° C. for 10 minutes, thereby peeling the cells off from the culture dish.
Into a U-bottom 96-well multiplate (Becton Dickinson), 66 μl/well of target cells (2×10⁴ cells) were placed. To this, 66 μl of IgG antibody (3 μg/ml) was added, and then 66 μl of peripheral blood mononuclear leukocyte suspension (7.5×10⁵ cells) was added. The E/T ratio (ratio of the effector cells and target cells) was made to be 20. In order to prompt to associate cells, centrifugation (60×g, 4° C., 5 minutes) was carried out so as to precipitate cells in the bottom. Then, the cells were incubated for 240 minutes in a culture device under conditions of 37° C. and 5% CO₂, and thus the ADCC reaction was induced. Each antibody sample was prepared as a CTM solution. […] Furthermore, in each experiment group, three wells were used.

B1: IgG type antibody 035-029 (antibody, V domains shown)
VH: EVQLVESGGGLVKPGGSLRLSCAASGFTFSSYAMSWVRQAPGKGLEWVSAISGSGGSTYYADSVKGRFTISRDNSKNTLYLQMNSLRAEDTALYYCARDNWYFDLWGRGTLVTVSS
VL: SSELTQDPAVSVALGQTVRITCQGDSLRSYYASWYQQKPGQAPVLVIYGKNNRLSGIPDRFSGSSSGNTASLTITGAQAEDEADYYCNSRDSSGNHVVFGGGTKLTVLG
notes: also called IgG antibody clone 035-029; human IgG type antibody clone recognizing IgSF4
  binding result: binds
